Assay results as given in the supplement of paper PMC10724198.
± gives the standard deviation of the averaged measurements.

Test system: Saccharomyces cerevisiae
Assay: protein stability index of tFT-peptide fusion (C-terminal peptide) (PSI (0-1 scale)); higher = more stable (slower turnover)
Details: genetic background: wild type; temperature: 30 C
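Also: PSI is a weighted mean of sequencing reads over stability bins, variants kept only with over 10 reads, mCherry proximal and sfGFP distal, peptide attached via GGGS linker.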

| Sequence | protein stability index |
| --- | --- |
| DLVRGGNCVYGV | 0.66 ± 0.032 |
| FCVVVAIVPLWG | 0.512 ± 0.013 |
| VSGEGRGRTTPD | 0.665 ± 0.013 |
| LPPPSPLPNSPL | 0.716 ± 0.13 |
| VCPVIGGGGVGV | 0.695 ± 0.0077 |
| RVCPPPLRRLLS | 0.693 ± 0.081 |
| GSTRHFMSEKRE | 0.743 ± 0.079 |
| CQTRTKAKKTQV | 0.727 ± 0.0083 |
| LKLQGGCLETGA | 0.602 ± 0.015 |
| AGMRRRGGAGGW | 0.684 ± 0.052 |
| GSDDLVSVSSAE | 0.708 ± 0.028 |
| SGVGPGNPPRPG | 0.689 ± 0.011 |
| SSPPAPHGAHPP | 0.752 ± 0.0099 |
| SRKCLPPLQLWS | 0.759 ± 0.067 |
| EQRQVQVTWRQD | 0.66 ± 0.055 |
| NVLNLTDTKETL | 0.652 ± 0.046 |
| HSALLRSASLSF | 0.705 ± 0.022 |
| LGRRVGWEVSGE | 0.687 ± 0.024 |
| KIKKKKEQTKKK | 0.752 ± 0.15 |
| VLVSGRCCRCGF | 0.701 ± 0.048 |
| PVLLLLSLPRPL | 0.667 ± 0.014 |
| ASATCQKGSIPR | 0.677 ± 0.036 |
| SIQCHNTKKFYE | 0.715 ± 0.032 |
| RGRCLGAESRGG | 0.767 ± 0.069 |
| HLTIVNYIWEIL | 0.549 ± 0.0059 |
| LWALPTPPPSGH | 0.67 ± 0.1 |

| Sequence | protein stability index |
| --- | --- |
| IECACVPLVAGG | 0.656 ± 0.024 |
| PPQGPVAPRKTP | 0.708 ± 0.018 |
| KTSQYKPREKID | 0.736 ± 0.04 |
| DVLDCTLVEQGA | 0.68 ± 0.035 |
| ATGLPSPALLHT | 0.687 ± 0.043 |
| GPSVPPLPRHEL | 0.728 ± 0.051 |
| FASSSDSLWRGI | 0.679 ± 0.014 |
| LGPAPFSPPPPL | 0.738 ± 0.041 |
| CPLGHLCVIRFG | 0.59 ± 0.012 |
| EPAWVNDQKERS | 0.832 ± 0.029 |
| AGRRASGRVGSG | 0.728 ± 0.018 |
| FPVSPFPPPPSS | 0.742 ± 0.16 |
| DTFVFSWGVGWG | 0.76 ± 0.041 |
| HTFSRLHSLPIR | 0.693 ± 0.0082 |
| RGRAGTRGVVEK | 0.71 ± 0.024 |
| RLYGILLLSGKE | 0.683 ± 0.019 |
| PLRKGVHTHNNK | 0.632 ± 0.053 |
| KKERSTKTNRNV | 0.635 ± 0.0072 |
| FLSFIADVTGKR | 0.707 ± 0.019 |
| EHGEFLEGARGV | 0.645 ± 0.0075 |
| PPLSLSPYPLPH | 0.69464 ± 0.0002 |
| GRIPELVWWLDD | 0.76 ± 0.037 |
| SLGVPVVWGLWI | 0.744 ± 0.032 |
| RRVPPGTPCGTR | 0.708 ± 0.073 |
| VYGVVVWLFGFL | 0.678 ± 0.0095 |
| VWGGGGVTVWLV | 0.6149 ± 0.0054 |

| Sequence | protein stability index |
| --- | --- |
| FCWVVFHSGISS | 0.713 ± 0.085 |
| GTEYDENSGTNE | 0.642 ± 0.011 |
| HAISHRVFLHSP | 0.665 ± 0.025 |
| AVTRLQPVMRAV | 0.6804 ± 0.0054 |
| GQCQERRKGGCA | 0.577 ± 0.0063 |
| GGCVCGPRVLGV | 0.67 ± 0.031 |
| CMRVHPGHPFPY | 0.633 ± 0.06 |
| DKYKIDKKSKRK | 0.683 ± 0.059 |
| PLPTPHPHKPYQ | 0.771 ± 0.025 |
| VPSGTHHPFTLS | 0.751 ± 0.02 |
| NEPEKGQRKRRE | 0.8051 ± 0.0073 |
| FMRASPSACTCL | 0.668 ± 0.094 |
| GGRGSRWAGPRC | 0.669 ± 0.038 |
| VVGSAGGGGFVL | 0.6717 ± 0.0065 |
| SDDGIRLLNQSF | 0.59 ± 0.095 |
| DVAPPFLSFFVV | 0.62 ± 0.011 |
| QKQQRIKQTAKK | 0.703 ± 0.048 |
| FTKAVQVFLASV | 0.635 ± 0.057 |
| PLPPSRLSPSPP | 0.7 ± 0.0036 |
| SKREYGKEYKRK | 0.656 ± 0.0084 |
| GGFVISGDVTVG | 0.688 ± 0.038 |
| ALVGMNVQRRRV | 0.705 ± 0.018 |
| VPVSNLCERTAG | 0.648 ± 0.011 |
| FSCKGSYIFTRR | 0.651 ± 0.012 |
| KKEAKRDKKSGR | 0.727 ± 0.12 |
| PRLPHPPPFDSL | 0.676 ± 0.016 |

| Sequence | protein stability index |
| --- | --- |
| CSHSLFASCSSL | 0.695 ± 0.021 |
| PGCLMGSRGFSN | 0.785 ± 0.18 |
| CPSLSALNHPLV | 0.701 ± 0.021 |
| DGVWVRCGTLGF | 0.715 ± 0.078 |
| WWGCRSVGVGLG | 0.675 ± 0.025 |
| RGGGPTGARPAM | 0.711 ± 0.1 |
| EERENKKKLDQT | 0.659 ± 0.029 |
| PPSPPAVISAGL | 0.716 ± 0.066 |
| CQNLVCRCCLWI | 0.6423 ± 0.0059 |
| SLDRASPPTSVA | 0.625 ± 0.0007 |
| PPAPPAPPPSVG | 0.708 ± 0.03 |
| LFFLPSSSLSPL | 0.731 ± 0.022 |
| NCEVYVGLVLAD | 0.597 ± 0.028 |
| CSSTTFADRRFM | 0.753 ± 0.062 |
| PVLELTLILRRS | 0.6304 ± 0.0023 |
| NLRESRSLKGVI | 0.73 ± 0.016 |
| IGLISTQYYWSL | 0.621 ± 0.043 |
| YAKKIDTIIILT | 0.54 ± 0.009 |
| EDKKKKTKANDT | 0.669 ± 0.028 |
| SRCGSFRICFGT | 0.638 ± 0.013 |
| AAVRGAYPDSEG | 0.64 ± 0.043 |
| LPPSPPLPCPLL | 0.75 ± 0.048 |
| EPGFWGGRGGRA | 0.661 ± 0.01 |
| SVLCRIGAGCAM | 0.629 ± 0.018 |
| SGVFARIKRTVV | 0.489 ± 0.072 |
| PHPVPPRLPFPS | 0.747 ± 0.038 |

| Sequence | protein stability index |
| --- | --- |
| AGGAASWPAFFP | 0.793 ± 0.02 |
| RWFQSSDVVDRQ | 0.703 ± 0.086 |
| RNDAARLLGESG | 0.698 ± 0.018 |
| RHSCLRFPPLHL | 0.694 ± 0.1 |
| SVAVTGSTLVLI | 0.628 ± 0.036 |
| RSPPPRAPPPSV | 0.645 ± 0.06 |
| FRSFLDHPRSPC | 0.729 ± 0.029 |
| LGGGAGAGYWVG | 0.741 ± 0.032 |
| EYGECWCWSSWR | 0.732 ± 0.059 |
| LVLLTRSASLLG | 0.691 ± 0.094 |
| ASSFVGLRWWAG | 0.722 ± 0.012 |
| RKNQGKKREPRA | 0.653 ± 0.079 |
| RVIEWHEEKLRV | 0.783 ± 0.017 |
| PPPSSSLLPLPF | 0.817 ± 0.14 |
| GATRCQTYPAGA | 0.686 ± 0.04 |
| RIEEQMIKNEWE | 0.6932 ± 0.0047 |
| PPPASPLVPPSP | 0.712 ± 0.021 |
| GSVGFPDRLLCL | 0.73 ± 0.033 |
| VFLLSDVCGLGL | 0.583 ± 0.2 |
| TECGKVGGGGEA | 0.689 ± 0.062 |
| SPPTEPFPDPTH | 0.6628 ± 0.0053 |
| AKPPLAPSRNAL | 0.656 ± 0.029 |
| MLLSVDWAGDEI | 0.796 ± 0.11 |
| RRSAWCAALPGR | 0.704 ± 0.0089 |
| GVVGTISLFVLD | 0.61 ± 0.018 |
| LPPFPPPSAPPS | 0.792 ± 0.023 |

| Sequence | protein stability index |
| --- | --- |
| YYPLLLASQLPI | 0.735 ± 0.0041 |
| LGCGVSLWVVPG | 0.712 ± 0.034 |
| PSSAHLPPPPPP | 0.673 ± 0.014 |
| TGLLLGLFGCML | 0.648 ± 0.068 |
| LVLSGFSLFPVP | 0.705 ± 0.034 |
| PLRPPPRPRQTH | 0.671 ± 0.056 |
| TLLLLLPPLPSF | 0.598 ± 0.023 |
| GGGVATGGGGGG | 0.599 ± 0.029 |
| HFPTTSITPIYC | 0.601 ± 0.019 |
| IVPPALRSDGRR | 0.668 ± 0.035 |
| HSCSRPLTPPPF | 0.72 ± 0.028 |
| SASVLPSPLPPV | 0.708 ± 0.028 |
| ESSTGYSPPLPV | 0.666 ± 0.047 |
| ASSPAPPSPTPP | 0.7 ± 0.05 |
| HSRPPPSPPDPA | 0.603 ± 0.033 |
| CGGGCVVGAGWG | 0.727 ± 0.044 |
| VLFSRFVFLGVL | 0.528 ± 0.0095 |
| GNAKKRKNKEKK | 0.651 ± 0.09 |
| DKNDGNHKKKKN | 0.702 ± 0.017 |
| LRSPAILFSFAF | 0.602 ± 0.043 |
| STVLGPPLGLGT | 0.69 ± 0.054 |
| VEVKEKLKLWSH | 0.691 ± 0.021 |
| FTGYPKHTRLPY | 0.687 ± 0.017 |
| IKQEKPTKLPEP | 0.6435 ± 0.0052 |
| RRHGTDEHKTAD | 0.674 ± 0.016 |
| LGGVRRRDWQEG | 0.677 ± 0.016 |

| Sequence | protein stability index |
| --- | --- |
| VVRLGGVSWAGG | 0.649 ± 0.016 |
| GTVTVLVGVHWE | 0.539 ± 0.008 |
| RLCDAAVGPEGG | 0.674 ± 0.05 |
| KTFPPVTLDFSS | 0.609 ± 0.013 |
| VSCVRGFFLFPC | 0.699 ± 0.022 |
| SLFSFSLSLCSP | 0.653 ± 0.06 |
| PKSFLRRLRGWA | 0.701 ± 0.07 |
| WGYGRGRVWEIS | 0.6137 ± 0.0011 |
| PPPLPPIPSRPH | 0.701 ± 0.019 |
| LFVPAASRLAFS | 0.686 ± 0.011 |
| PPLRLSHFPRAD | 0.659 ± 0.06 |
| EFKGRHEETTKS | 0.72 ± 0.08 |
| PTDVVCVSGHGS | 0.748 ± 0.076 |
| PVSPPLSLASPS | 0.706 ± 0.047 |
| FSSGLAEVGVAR | 0.676 ± 0.074 |
| RIRLNHAMSTVV | 0.625 ± 0.019 |
| VPPPRLCPERPH | 0.719 ± 0.063 |
| ERSVTVKIRDLL | 0.6767 ± 0.0036 |
| VSVFRFALGLQV | 0.563 ± 0.0058 |
| PASRIGGALPGG | 0.604 ± 0.03 |
| SHESRPNLGCIY | 0.678 ± 0.026 |
| IKKNKKKKNERK | 0.675 ± 0.025 |
| LLPPTPIAFPPS | 0.728 ± 0.073 |
| VVRMFRLGNGNF | 0.7 ± 0.0083 |
| PSWLPLPLLFLV | 0.416 ± 0.18 |
| LIWGRGGSRTGG | 0.747 ± 0.062 |

| Sequence | protein stability index |
| --- | --- |
| LGGARWSGLPHV | 0.707 ± 0.085 |
| VQCRIREELWGG | 0.6919 ± 0.0047 |
| LAVWSVVGGGVV | 0.637 ± 0.008 |
| HGTRPFLAPMTP | 0.672 ± 0.0092 |
| IIKPPDIQQSRQ | 0.739 ± 0.026 |
| LLDEHGKRRKKI | 0.713 ± 0.0011 |
| RGGRGGPGWVAG | 0.681 ± 0.025 |
| KKKKKKLKKKKI | 0.724 ± 0.056 |
| CSFSRRLCHRPT | 0.701 ± 0.013 |
| KGYGKTGTLRHD | 0.646 ± 0.013 |
| QGRYPLNVLIRI | 0.57 ± 0.057 |
| WHLQYTLIPYEA | 0.635 ± 0.054 |
| PPPARSRCTHPT | 0.706 ± 0.026 |
| PVPPLRRFPPLF | 0.648 ± 0.036 |
| AGHFITRTGGPT | 0.7 ± 0.07 |
| KCLCGVHVRLRA | 0.5901 ± 0.0017 |
| SLKELSYKGTLR | 0.65 ± 0.038 |
| LTLADWYRIPVI | 0.558 ± 0.051 |
| LLSSLLLDQPYR | 0.6455 ± 0.0036 |
| CRFRFGFNFSSF | 0.581 ± 0.075 |
